Measured values from the supplement of paper PMC11246515.
± gives the standard deviation of the averaged measurements.

Assay: total protein half-life in vivo (active degradation + dilution); higher = more stable protein
[1] = E. coli NCM3722 delta-clpP delta-lon delta-hslV, growth: N-lim chemostat, doubling time 6 h
[2] = E. coli NCM3722 delta-clpP, growth: N-lim chemostat, doubling time 6 h
[3] = E. coli NCM3722 delta-hslV, growth: N-lim chemostat, doubling time 6 h
[4] = E. coli NCM3722 delta-lon, growth: N-lim chemostat, doubling time 6 h
[5] = E. coli NCM3722 delta-smpB, growth: N-lim chemostat, doubling time 6 h
[6] = wild type E. coli NCM3722, growth: C-lim chemostat, doubling time 3 h
[7] = wild type E. coli NCM3722, growth: C-lim chemostat, doubling time 6 h
[8] = wild type E. coli NCM3722, growth: C-lim chemostat, doubling time 12 h
[9] = wild type E. coli NCM3722, growth: N-lim chemostat, doubling time 6 h
[10] = wild type E. coli NCM3722, growth: N-lim chemostat, doubling time 12 h
[11] = wild type E. coli NCM3722, growth: P-lim chemostat, doubling time 6 h
[12] = wild type E. coli NCM3722, growth: P-lim chemostat, doubling time 12 h

MAKTLYEKLFDAHVVYEAENETPLLYIDRHLVHEVTSPQAFDGLRAHGRPVRQPGKTFATMDHNVSTQTKDINACGEMARIQMQELIKNCKEFGVELYDLNHPYQGIVHVMGPEQGVTLPGMTIVCGDSHTATHGAFGALAFGIGTSEVEHVLATQTLKQGRAKTMKIEVQGKAAPGITAKDIVLAIIGKTGSAGGTGHVVEFCGEAIRDLSMEGRMTLCNMAIEMGAKAGLVAPDETTFNYVKGRLHAPKGKDFDDAVAYWKTLQTDEGATFDTVVTLQAEEISPQVTWGTNPGQVISVNDNIPDPASFADPVERASAEKALAYMGLKPGIPLTEVAIDKVFIGSCTNSRIEDLRAAAEIAKGRKVAPGVQALVVPGSGPVKAQAEAEGLDKIFIEAGFEWRLPGCSMCLAMNNDRLNPGERCASTSNRNFEGRQGRGGRTHLVSPAMAAAAAVTGHFADIRNIK [P0A6A6]
total protein half-life in vivo [1]: 4.76 ± 0.36 h
total protein half-life in vivo [2]: 1.53 ± 0.022 h
total protein half-life in vivo [3]: 2.72 ± 0.34 h
total protein half-life in vivo [4]: 3.63 ± 0.16 h
total protein half-life in vivo [5]: 2.28 ± 0.034 h
total protein half-life in vivo [6]: 1.877 ± 0.017 h
total protein half-life in vivo [7]: 3.17 ± 0.04 h
total protein half-life in vivo [8]: 3.71 ± 0.57 h
total protein half-life in vivo [9]: 2.9 ± 0.39 h
total protein half-life in vivo [10]: 3.91 ± 0.068 h
total protein half-life in vivo [11]: 2.32 ± 0.4 h
total protein half-life in vivo [12]: 5.41 ± 0.32 h

MAKVLVLYYSMYGHIETMARAVAEGASKVDGAEVVVKRVPETMPPQLFEKAGGKTQTAPVATPQELADYDAIIFGTPTRFGNMSGQMRTFLDQTGGLWASGALYGKLASVFSSTGTGGGQEQTITSTWTTLAHHGMVIVPIGYAAQELFDVSQVRGGTPYGATTIAGGDGSRQPSQEELSIARYQGEYVAGLAVKLNG [P0A8G6]
total protein half-life in vivo [1]: 5.48 ± 0.11 h
total protein half-life in vivo [2]: 5.53 ± 0.88 h
total protein half-life in vivo [3]: 5.48 ± 0.15 h
total protein half-life in vivo [4]: 5.7 ± 0.49 h
total protein half-life in vivo [5]: 4.89 ± 0.052 h
total protein half-life in vivo [6]: 3.227 ± 0.018 h
total protein half-life in vivo [7]: 5.98 ± 0.084 h
total protein half-life in vivo [8]: 11.1 ± 1.1 h
total protein half-life in vivo [9]: 5.31 ± 0.38 h
total protein half-life in vivo [10]: 9.99 ± 1.1 h
total protein half-life in vivo [11]: 5.69 ± 0.29 h
total protein half-life in vivo [12]: 11.7 ± 0.32 h

MAKVSLEKDKIKFLLVEGVHQKALESLRAAGYTNIEFHKGALDDEQLKESIRDAHFIGLRSRTHLTEDVINAAEKLVAIGCFCIGTNQVDLDAAAKRGIPVFNAPFSNTRSVAELVIGELLLLLRGVPEANAKAHRGVWNKLAAGSFEARGKKLGIIGYGHIGTQLGILAESLGMYVYFYDIENKLPLGNATQVQHLSDLLNMSDVVSLHVPENPSTKNMMGAKEISLMKPGSLLINASRGTVVDIPALCDALASKHLAGAAIDVFPTEPATNSDPFTSPLCEFDNVLLTPHIGGSTQEAQENIGLEVAGKLIKYSDNGSTLSAVNFPEVSLPLHGGRRLMHIHENRPGVLTALNKIFAEQGVNIAAQYLQTSAQMGYVVIDIEADEDVAEKALQAMKAIPGTIRARLLY [P0A9T0]
total protein half-life in vivo [1]: 5.06 ± 0.26 h
total protein half-life in vivo [2]: 4.512 ± 0.0057 h
total protein half-life in vivo [3]: 3.75 ± 0.028 h
total protein half-life in vivo [4]: 4.11 ± 0.16 h
total protein half-life in vivo [5]: 4.09 ± 0.058 h
total protein half-life in vivo [6]: 3.09 ± 0.13 h
total protein half-life in vivo [7]: 5.65 ± 0.34 h
total protein half-life in vivo [8]: 11.5 ± 1.3 h
total protein half-life in vivo [9]: 3.94 ± 0.12 h
total protein half-life in vivo [10]: 5.84 ± 0.19 h
total protein half-life in vivo [11]: 6.02 ± 0.23 h
total protein half-life in vivo [12]: 11.8 ± 0.39 h

MALAMKVISQVEAQRKILEEAVSTALELASGKSDGAEVAVSKTTGISVSTRYGEVENVEFNSDGALGITVYHQNRKGSASSTDLSPQAIARTVQAALDIARYTSPDPCAGVADKELLAFDAPDLDLFHPAEVSPDEAIELAARAEQAALQADKRITNTEGGSFNSHYGVKVFGNSHGMLQGYCSTRHSLSSCVIAEENGDMERDYAYTIGRAMSDLQTPEWVGADCARRTLSRLSPRKLSTMKAPVIFANEVATGLFGHLVGAIAGGSVYRKSTFLLDSLGKQILPDWLTIEEHPHLLKGLASTPFDSEGVRTERRDIIKDGILTQWLLTSYSARKLGLKSTGHAGGIHNWRIAGQGLSFEQMLKEMGTGLVVTELMGQGVSAITGDYSRGAAGFWVENGEIQYPVSEITIAGNLKDMWRNIVTVGNDIETRSNIQCGSVLLPEMKIAGQ [P0AFK0]
total protein half-life in vivo [1]: 4.58 ± 0.36 h
total protein half-life in vivo [2]: 4.28 ± 0.05 h
total protein half-life in vivo [3]: 4.07 ± 0.065 h
total protein half-life in vivo [4]: 4.34 ± 0.1 h
total protein half-life in vivo [5]: 4.12 ± 0.032 h
total protein half-life in vivo [6]: 3.39 ± 0.57 h
total protein half-life in vivo [7]: 5.59 ± 0.52 h
total protein half-life in vivo [8]: 9.13 ± 0.67 h
total protein half-life in vivo [9]: 4.27 ± 0.28 h
total protein half-life in vivo [10]: 6.45 ± 0.34 h
total protein half-life in vivo [11]: 5.5 ± 0.28 h
total protein half-life in vivo [12]: 10.09 ± 0.033 h

MALIVEFICELPNGVHARPASHVETLCNTFSSQIEWHNLRTDRKGNAKSALALIGTDTLAGDNCQLLISGADEQEAHQRLSQWLRDEFPHCDAPLAEVKSDELEPLPVSLTNLNPQIIRARTVCSGSAGGILTPISSLDLNALGNLPAAKGVDAEQSALENGLTLVLKNIEFRLLDSDGATSAILEAHRSLAGDTSLREHLLAGVSAGLSCAEAIVASANHFCEEFSRSSSSYLQERALDVRDVCFQLLQQIYGEQRFPAPGKLTQPAICMADELTPSQFLELDKNHLKGLLLKSGGTTSHTVILARSFNIPTLVGVDIDALTPWQQQTIYIDGNAGAIVVEPGEAVARYYQQEARVQDALREQQRVWLTQQARTADGIRIEIAANIAHSVEAQAAFGNGAEGVGLFRTEMLYMDRTSAPGESELYNIFCQALESANGRSIIVRTMDIGGDKPVDYLNIPAEANPFLGYRAVRIYEEYASLFTTQLRSILRASAHGSLKIMIPMISSMEEILWVKEKLAEAKQQLRNEHIPFDEKIQLGIMLEVPSVMFIIDQCCEEIDFFSIGSNDLTQYLLAVDRDNAKVTRHYNSLNPAFLRALDYAVQAVHRQGKWIGLCGELGAKGSVLPLLVGLGLDELSMSAPSIPAAKARMAQLDSRECRKLLNQAMACRTSLEVEHLLAQFRMTQQDAPLVTAECITLESDWRSKEEVLKGMTDNLLLAGRCRYPRKLEADLWAREAVFSTGLGFSFAIPHSKSEHIEQSTISVARLQAPVRWGDDEAQFIIMLTLNKHAAGDQHMRIFSRLARRIMHEEFRNALVNAASADAIASLLQHELEL
total protein half-life in vivo [6]: 2.7 h
total protein half-life in vivo [8]: 7.46 h

MALLQISEPGLSAAPHQRRLAAGIDLGTTNSLVATVRSGQAETLADHEGRHLLPSVVHYQQQGHSVGYDARTNAALDTANTISSVKRLMGRSLADIQQRYPHLPYQFQASENGLPMIETAAGLLNPVRVSADILKALAARATEALAGELDGVVITVPAYFDDAQRQGTKDAARLAGLHVLRLLNEPTAAAIAYGLDSGQEGVIAVYDLGGGTFDISILRLSRGVFEVLATGGDSALGGDDFDHLLADYIREQAGIPDRSDNRVQRELLDAAIAAKIALSDADSVTVNVAGWQGEISREQFNELIAPLVKRTLLACRRALKDAGVEADEVLEVVMVGGSTRVPLVRERVGEFFGRPPLTSIDPDKVVAIGAAIQADILVGNKPDSEMLLLDVIPLSLGLETMGGLVEKVIPRNTTIPVARAQDFTTFKDGQTAMSIHVMQGERELVQDCRSLARFALRGIPALPAGGAHIRVTFQVDADGLLSVTAMEKSTGVEASIQVKPSYGLTDSEIASMIKDSMSYAEQDVKARMLAEQKVEAARVLESLHGALAADAALLSAAERQVIDDAAAHLSEVAQGDDVDAIEQAIKNVDKQTQDFAARRMDQSVRRALKGHSVDEV [P0A6Z1]
total protein half-life in vivo [1]: 5.04 ± 0.78 h
total protein half-life in vivo [2]: 4.05 ± 0.14 h
total protein half-life in vivo [3]: 2.65 ± 0.14 h
total protein half-life in vivo [4]: 3.22 ± 0.24 h
total protein half-life in vivo [5]: 2.53 ± 0.028 h
total protein half-life in vivo [6]: 2.7 ± 0.2 h
total protein half-life in vivo [7]: 4.48 ± 0.47 h
total protein half-life in vivo [8]: 7.07 ± 1.1 h
total protein half-life in vivo [9]: 2.857 ± 0.016 h
total protein half-life in vivo [10]: 3.54 ± 0.12 h
total protein half-life in vivo [11]: 4.05 ± 0.31 h
total protein half-life in vivo [12]: 6.96 ± 0.068 h

MAMETQDIIKRSATNSITPPSQVRDYKAEVAKLIDVSTCIGCKACQVACSEWNDIRDEVGHCVGVYDNPADLSAKSWTVMRFSETEQNGKLEWLIRKDGCMHCEDPGCLKACPSAGAIIQYANGIVDFQSENCIGCGYCIAGCPFNIPRLNKEDNRVYKCTLCVDRVSVGQEPACVKTCPTGAIHFGTKKEMLELAEQRVAKLKARGYEHAGVYNPEGVGGTHVMYVLHHADQPELYHGLPKDPKIDTSVSLWKGALKPLAAAGFIATFAGLIFHYIGIGPNKEVDDDEEDHHE [P0AAJ3]
total protein half-life in vivo [2]: 4.35 h
total protein half-life in vivo [3]: > 8 h
total protein half-life in vivo [9]: 3.95 h
total protein half-life in vivo [11]: 6.22 h
